Results from the supplement of paper PMC10065799, “High-throughput profiling of sequence recognition by tyrosine kinases and SH2 domains using bacterial peptide display” (eLife, 2023).

Tests used:
EPHB2 = EPHB2 (UniProt P29323); assay: phosphorylation enrichment, bacterial display (enrichment ratio); higher = better substrate or ligand; peptides without Tyr show the background
c-Src = assay: as above
Fes = Fes (UniProt P07332); assay: as above
MERTK = MERTK (UniProt Q12866); assay: as above
EPHB1 = EPHB1 (UniProt P54762); assay: as above
Fer (mouse) = assay: as above
Jak2 = Jak2 (UniProt O60674); assay: as above
Chain of Jak2 (O60674 whole entry, looked up): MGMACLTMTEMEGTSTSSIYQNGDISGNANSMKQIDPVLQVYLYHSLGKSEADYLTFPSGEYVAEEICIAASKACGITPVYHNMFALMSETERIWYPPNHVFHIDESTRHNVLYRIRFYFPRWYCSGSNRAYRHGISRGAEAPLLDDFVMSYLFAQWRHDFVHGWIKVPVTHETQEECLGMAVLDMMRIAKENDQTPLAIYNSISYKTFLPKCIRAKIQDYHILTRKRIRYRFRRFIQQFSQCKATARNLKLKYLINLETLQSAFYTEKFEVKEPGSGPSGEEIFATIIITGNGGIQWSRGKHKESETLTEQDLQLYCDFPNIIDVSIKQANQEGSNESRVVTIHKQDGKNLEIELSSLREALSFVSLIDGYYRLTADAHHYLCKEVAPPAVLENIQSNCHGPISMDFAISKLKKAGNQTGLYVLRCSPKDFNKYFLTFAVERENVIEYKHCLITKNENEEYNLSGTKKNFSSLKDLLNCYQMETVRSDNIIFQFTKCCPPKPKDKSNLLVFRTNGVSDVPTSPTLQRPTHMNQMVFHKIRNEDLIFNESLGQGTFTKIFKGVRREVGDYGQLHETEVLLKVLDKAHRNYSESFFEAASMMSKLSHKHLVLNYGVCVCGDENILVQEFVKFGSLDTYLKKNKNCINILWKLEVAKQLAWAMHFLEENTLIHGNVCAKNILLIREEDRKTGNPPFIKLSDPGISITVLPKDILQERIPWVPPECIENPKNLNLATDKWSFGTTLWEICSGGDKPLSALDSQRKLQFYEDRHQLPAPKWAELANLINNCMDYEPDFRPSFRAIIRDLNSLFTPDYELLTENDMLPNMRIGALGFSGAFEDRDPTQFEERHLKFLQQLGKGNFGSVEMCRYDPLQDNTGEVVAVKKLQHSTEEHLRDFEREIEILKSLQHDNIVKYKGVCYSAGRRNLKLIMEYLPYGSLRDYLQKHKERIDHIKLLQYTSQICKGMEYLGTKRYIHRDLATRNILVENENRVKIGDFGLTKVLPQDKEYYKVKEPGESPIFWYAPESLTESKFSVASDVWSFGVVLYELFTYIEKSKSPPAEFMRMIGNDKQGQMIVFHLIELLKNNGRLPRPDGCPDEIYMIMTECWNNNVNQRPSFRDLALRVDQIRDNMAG

AncSZ = assay: as above
FGFR1 = FGFR1 (UniProt P11362); assay: as above
Chain of FGFR1 (P11362 whole entry, looked up): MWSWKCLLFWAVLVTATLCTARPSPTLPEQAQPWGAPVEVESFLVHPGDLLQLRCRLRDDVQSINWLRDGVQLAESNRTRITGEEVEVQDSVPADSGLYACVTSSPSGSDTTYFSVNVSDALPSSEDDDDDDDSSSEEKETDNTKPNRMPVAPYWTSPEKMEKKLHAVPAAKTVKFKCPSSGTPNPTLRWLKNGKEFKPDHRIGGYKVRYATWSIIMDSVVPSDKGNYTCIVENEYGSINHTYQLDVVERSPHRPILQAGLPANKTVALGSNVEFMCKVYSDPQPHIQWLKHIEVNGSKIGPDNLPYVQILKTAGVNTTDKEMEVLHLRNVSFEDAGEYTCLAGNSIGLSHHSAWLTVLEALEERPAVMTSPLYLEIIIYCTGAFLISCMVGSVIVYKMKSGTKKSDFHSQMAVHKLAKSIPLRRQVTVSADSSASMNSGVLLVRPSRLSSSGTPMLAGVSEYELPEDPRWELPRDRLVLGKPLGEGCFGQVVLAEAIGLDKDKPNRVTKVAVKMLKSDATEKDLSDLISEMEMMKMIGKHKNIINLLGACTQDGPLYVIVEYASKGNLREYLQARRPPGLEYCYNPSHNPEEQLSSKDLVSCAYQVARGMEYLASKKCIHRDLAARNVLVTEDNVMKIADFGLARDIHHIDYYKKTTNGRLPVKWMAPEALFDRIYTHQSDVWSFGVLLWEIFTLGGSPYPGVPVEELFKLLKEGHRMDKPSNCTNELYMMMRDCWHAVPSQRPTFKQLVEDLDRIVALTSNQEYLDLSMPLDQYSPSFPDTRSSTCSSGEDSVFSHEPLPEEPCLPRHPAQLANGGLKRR

c-Abl (mouse) = assay: as above
FGFR3 = FGFR3 (UniProt P22607); assay: as above
Fyn = Fyn (UniProt P06241); assay: as above
Chain of Fyn (P06241 whole entry, looked up): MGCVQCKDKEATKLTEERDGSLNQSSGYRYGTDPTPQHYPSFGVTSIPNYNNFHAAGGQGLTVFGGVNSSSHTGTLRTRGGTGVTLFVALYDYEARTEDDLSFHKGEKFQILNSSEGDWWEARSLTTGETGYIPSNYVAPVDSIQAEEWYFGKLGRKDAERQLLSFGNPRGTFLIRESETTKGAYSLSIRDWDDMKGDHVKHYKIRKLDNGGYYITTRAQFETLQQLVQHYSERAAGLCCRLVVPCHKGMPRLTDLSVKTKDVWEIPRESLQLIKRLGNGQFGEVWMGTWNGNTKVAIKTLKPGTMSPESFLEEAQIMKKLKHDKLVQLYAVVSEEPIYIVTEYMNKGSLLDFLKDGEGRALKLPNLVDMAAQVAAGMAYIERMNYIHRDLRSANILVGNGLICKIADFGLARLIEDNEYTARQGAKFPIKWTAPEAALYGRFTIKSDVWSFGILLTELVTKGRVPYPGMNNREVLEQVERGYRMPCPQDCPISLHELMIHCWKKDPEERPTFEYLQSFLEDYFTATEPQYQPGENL

Hck = Hck (UniProt P08631); assay: as above
Grb2 SH2 = Grb2 SH2 (UniProt P62993); assay: SH2 binding enrichment of the phosphorylated peptide, bacterial display (enrichment ratio); higher = better substrate or ligand; peptides without Tyr show the background
Chain of Grb2 SH2 (P62993 whole entry, looked up): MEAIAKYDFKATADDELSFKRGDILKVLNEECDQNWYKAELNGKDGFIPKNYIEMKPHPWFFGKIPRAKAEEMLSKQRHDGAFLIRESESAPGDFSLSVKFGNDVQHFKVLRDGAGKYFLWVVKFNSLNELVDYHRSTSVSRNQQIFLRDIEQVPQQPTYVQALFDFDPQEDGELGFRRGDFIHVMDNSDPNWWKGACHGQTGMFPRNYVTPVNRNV

SHP2-C SH2 = assay: as above
c-Src SH2 = assay: as above
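For SH2 binding enrichment of the phosphorylated peptide, bacterial display in this document: peptide library displayed on the E. coli surface as eCPX fusions, selected cells deep-sequenced, score is each peptide's frequency after selection divided by its frequency in the input.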
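For phosphorylation enrichment, bacterial display in this document: 11-residue human phosphosite peptides and single-mutation variants displayed on the E. coli surface, counted by deep sequencing, each peptide's frequency after selection divided by its frequency in the unselected input library; frequency after pTyr selection over input frequency; kinase dosed for 20-30% of maximal phosphorylation in three min.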

Chain of MERTK (Q12866 whole entry, looked up): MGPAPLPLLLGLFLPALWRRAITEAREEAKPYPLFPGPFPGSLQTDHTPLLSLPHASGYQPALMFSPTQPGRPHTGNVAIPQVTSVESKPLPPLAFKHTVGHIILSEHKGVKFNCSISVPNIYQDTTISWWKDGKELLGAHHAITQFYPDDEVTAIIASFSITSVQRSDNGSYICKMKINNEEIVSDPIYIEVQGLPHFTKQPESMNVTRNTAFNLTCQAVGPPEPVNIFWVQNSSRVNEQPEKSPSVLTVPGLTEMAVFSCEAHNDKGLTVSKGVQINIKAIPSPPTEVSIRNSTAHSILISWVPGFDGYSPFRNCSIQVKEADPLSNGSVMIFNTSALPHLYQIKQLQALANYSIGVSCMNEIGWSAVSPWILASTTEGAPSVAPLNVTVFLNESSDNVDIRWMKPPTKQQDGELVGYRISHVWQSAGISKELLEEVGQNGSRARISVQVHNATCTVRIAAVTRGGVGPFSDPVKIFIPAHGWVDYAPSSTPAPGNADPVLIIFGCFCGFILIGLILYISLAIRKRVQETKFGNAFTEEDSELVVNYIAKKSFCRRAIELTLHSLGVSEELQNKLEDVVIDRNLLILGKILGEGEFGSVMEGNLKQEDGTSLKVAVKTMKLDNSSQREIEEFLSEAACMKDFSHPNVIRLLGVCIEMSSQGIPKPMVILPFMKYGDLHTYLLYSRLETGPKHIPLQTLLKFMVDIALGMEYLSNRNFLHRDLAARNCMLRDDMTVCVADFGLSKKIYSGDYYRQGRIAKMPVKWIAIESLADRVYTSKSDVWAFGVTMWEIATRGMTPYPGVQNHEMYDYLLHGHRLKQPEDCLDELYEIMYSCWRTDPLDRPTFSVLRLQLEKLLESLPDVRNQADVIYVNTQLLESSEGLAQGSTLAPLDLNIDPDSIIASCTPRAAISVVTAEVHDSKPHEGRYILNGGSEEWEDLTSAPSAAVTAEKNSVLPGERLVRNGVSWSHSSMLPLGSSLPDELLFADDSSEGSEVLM
Chain of EPHB2 (P29323 whole entry, looked up): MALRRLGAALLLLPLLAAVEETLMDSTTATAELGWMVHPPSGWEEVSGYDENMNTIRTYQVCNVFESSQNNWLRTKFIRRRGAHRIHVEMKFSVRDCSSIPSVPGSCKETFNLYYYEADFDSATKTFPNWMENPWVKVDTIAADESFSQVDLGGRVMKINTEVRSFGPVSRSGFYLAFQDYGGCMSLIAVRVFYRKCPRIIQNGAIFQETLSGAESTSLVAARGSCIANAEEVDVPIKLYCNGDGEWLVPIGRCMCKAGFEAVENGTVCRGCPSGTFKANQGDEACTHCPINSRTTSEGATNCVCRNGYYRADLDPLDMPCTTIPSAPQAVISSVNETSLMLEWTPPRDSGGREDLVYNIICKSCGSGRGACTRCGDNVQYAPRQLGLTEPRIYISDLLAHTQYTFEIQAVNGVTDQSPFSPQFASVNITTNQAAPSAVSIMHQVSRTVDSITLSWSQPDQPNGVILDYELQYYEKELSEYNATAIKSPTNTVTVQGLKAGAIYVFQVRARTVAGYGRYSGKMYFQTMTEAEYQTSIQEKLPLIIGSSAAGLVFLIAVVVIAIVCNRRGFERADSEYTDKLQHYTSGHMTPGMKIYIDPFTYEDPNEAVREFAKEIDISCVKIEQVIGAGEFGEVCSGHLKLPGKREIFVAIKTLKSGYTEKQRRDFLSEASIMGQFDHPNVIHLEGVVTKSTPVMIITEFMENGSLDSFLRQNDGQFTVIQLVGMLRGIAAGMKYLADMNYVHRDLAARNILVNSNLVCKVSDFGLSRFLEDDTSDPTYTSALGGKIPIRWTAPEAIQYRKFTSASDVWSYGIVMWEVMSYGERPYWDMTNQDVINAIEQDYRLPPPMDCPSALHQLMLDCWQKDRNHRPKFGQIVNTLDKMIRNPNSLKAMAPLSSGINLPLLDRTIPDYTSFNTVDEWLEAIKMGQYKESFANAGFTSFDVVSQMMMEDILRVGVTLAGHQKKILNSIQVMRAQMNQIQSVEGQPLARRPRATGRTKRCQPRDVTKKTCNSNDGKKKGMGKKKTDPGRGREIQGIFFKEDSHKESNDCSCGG

Sequence	phosphorylation enrichment (EPHB2)	phosphorylation enrichment (c-Src)	phosphorylation enrichment (Fes)	phosphorylation enrichment (MERTK)	phosphorylation enrichment (EPHB1)	phosphorylation enrichment (Fer (mouse))	phosphorylation enrichment (Jak2)	phosphorylation enrichment (AncSZ)	phosphorylation enrichment (FGFR1)	phosphorylation enrichment (c-Abl (mouse))	phosphorylation enrichment (FGFR3)	phosphorylation enrichment (Fyn)	phosphorylation enrichment (Hck)	SH2 binding enrichment (Grb2 SH2)	SH2 binding enrichment (SHP2-C SH2)	SH2 binding enrichment (c-Src SH2)
VSGIPYSQPKQ [NEU1_Y251_G252S]	0.4	0.388	0.474	0.326	0.234	0.467	0.943	0.467	0.389	0.416	0.443	0.398	0.358	0.751	0.646	0.617
VSSPKYGSDDE [TMCC2_Y473]	0.505	0.619	1.01	0.464	0.559	0.553	0.926	0.968	0.46	0.992	0.713	0.556	0.429	1.13	0.93	0.556
VTRLRYPVCFG [ITK_Y336]	0.543	0.467	1.07	0.471	0.528	0.487	0.825	0.815	0.467	0.756	0.877	0.453	0.555	1.05	1.01	1.06
VVSLFYGTALF [OR10C1_Y251_M246V]	0.812	1.97	1.43	0.7	0.698	1.1	1.61	1.25	0.566	1.21	0.804	1.94	1.42	0.713	0.516	0.353
VVTGPYEKPSL [KIR3DS1_Y221_L220P]	0.513	0.472	0.746	0.45	0.55	0.665	0.69	1.04	0.581	0.966	0.491	0.473	0.503	0.875	0.636	0.704
WGLRSYFETSK [MAGED2_Y448_YF]	0.594	0.32	1.08	0.385	0.553	0.42	1.04	0.967	0.536	0.517	0.645	0.526	0.489	1.08	1.53	0.882
WISNRSLDFSS [PRPH2_Y184_Y184S]	0.469	0.321	0.765	0.408	0.452	0.583	0.713	0.646	0.788	0.578	0.583	0.401	0.427	0.745	0.529	0.419
WISNRYLDFSS [PRPH2_Y184]	0.535	0.705	0.946	0.54	0.505	0.499	0.894	0.961	0.564	0.793	0.676	0.524	0.577	0.871	0.688	0.62
WKEIEYEVVRD [CPS1_Y634]	1.2	0.473	1.09	0.384	0.701	0.583	0.899	1.31	0.549	0.573	0.754	0.553	0.609	0.697	0.65	0.524
WNNLDYMDSRR [GAA_Y407_D404N]	0.821	0.412	0.907	0.392	0.914	0.498	0.749	0.964	0.538	0.581	0.636	0.464	0.572	0.861	1.43	0.527
WQQQSYLDSVI [CTNNB1_Y30_G34V]	0.668	0.496	1.03	0.406	0.511	0.469	0.908	0.983	0.579	0.806	0.716	0.504	0.529	0.757	0.509	0.444
WRGMPYGGRGD [TGM1_Y312_R307W]	0.401	0.419	0.514	0.363	0.34	0.31	0.482	0.548	0.388	0.396	0.486	0.467	0.39	1.19	0.739	0.709
WTAHSYRMGST [ARHGEF7_Y785]	0.407	0.374	0.659	0.37	0.46	0.482	0.432	0.642	0.496	0.437	0.47	0.479	0.432	0.838	0.651	0.538
YDAHNYHPLPV [OAT_Y55_G51D]	1.62	0.622	0.685	3.58	0.923	6.52	0.848	0.871	12.7	1.05	7.27	0.864	2.01	1.15	0.697	0.813
YETDYYRKGGK [INSR_Y1190]	0.419	0.338	0.864	0.427	0.41	0.392	0.83	0.668	0.522	0.752	0.492	0.398	0.469	0.675	0.676	0.622
YFRDGYMPRQY [GSS_Y270]	0.491	0.509	0.74	0.418	0.429	0.531	0.928	0.615	3.74	0.496	2.73	0.479	0.402	1.01	0.848	0.627
YFWDGYMPRQY [GSS_Y270_R267W]	0.521	0.772	1.18	3.96	0.68	0.576	5.42	1.01	10.8	0.565	9.39	0.547	0.783	1.11	1.1	1.07
YGMSTYITRED [FNDC3B_Y180]	0.584	0.981	1.25	0.46	0.712	0.745	1.07	0.972	0.514	0.924	0.683	0.852	0.873	0.608	0.576	0.464
YIATQYSLCPR [LBR_Y166_R169C]	0.817	0.725	0.907	1.75	0.511	0.606	0.873	1.23	1.73	0.716	1.19	0.67	0.719	0.885	0.839	0.713
YIGVTYKNKED [PDGFRA_Y993_E996K]	0.505	0.476	1.07	0.44	0.564	0.533	0.809	0.896	0.819	0.675	0.747	0.505	0.753	0.835	1.39	0.961
YQGGTYSKACT [FGG_Y380_S384C]	0.4	0.436	0.74	0.459	0.428	0.38	0.59	0.52	0.349	0.719	0.529	0.383	0.541	0.997	1.03	0.869
YQKDVYDIPPS [NEDD9_Y177]	3.2	3.26	0.735	7.34	0.788	0.611	0.614	0.954	0.528	0.734	0.499	3.66	3.38	0.852	0.531	0.532
YRVAGYKTQGG [TIA1_Y383_E384K]	0.309	0.435	0.461	0.312	0.368	0.363	0.42	0.509	0.434	1.98	0.376	0.494	0.366	0.68	0.553	0.409
YSNKLHYQLEQ [PDPR_Y109_Y109H]	0.439	0.553	0.782	0.484	0.498	0.461	0.757	1.12	0.435	0.495	0.592	0.568	0.535	0.98	0.54	0.606
YSTPPYLLEAA [BRIP1_Y921_S919P]	0.711	1.6	1.17	3.63	0.664	1.09	1.04	1.77	1.16	1.8	0.935	1.56	1.61	0.862	0.811	1.08
YVPSFYHAFSG [ACTN4_Y265_S262P]	1.03	2.17	0.99	7.65	2.09	0.407	0.794	0.81	1.32	1.06	1.17	1.82	1.94	1.2	0.673	0.997
